Reference: PMC9182532, “The RHIM of the Immune Adaptor Protein TRIF Forms Hybrid Amyloids with Other Necroptosis-Associated Proteins” (Molecules, 2022)

B1: YPet-TRIF_(601–712) (domain or fragment, human, UniProt Q8IUC6 601-712, looked up)
chain: APYGARMPFGGQVPLGAPPPFPTWPGCPQPPPLHAWQAGTPPPPSPQPAAFPQSLPFPQSPAFPTASPAPPQSPGLQPLIIHHAQMVQLGLNNHMWNQRGSQAPEDKTQEAE
notes: source: E. coli BL21(DE3), solubilised in 8 M urea, purified (Ni-NTA); not shown: YPet, N-terminal, kept

Key:
[1] = target: the molecule itself; experiment: SDS-agarose gel electrophoresis (SDS-AGE); 5 µM alone or equimolar mixtures, kept in 8 M urea (monomer control) or dialysed overnight against 100 mM NaH2PO4, 20 mM Tris, 0.5 mM DTT, pH 8.0, with or without 2% SDS for 10 min; 1% agarose gel with 0.1% SDS; YPet and mCherry fluorescence imaged and overlaid
[2] = target: B1; experiment: as above; details: both partners purified
[3] = target: the molecule itself; experiment: thioflavin T fluorescence + Congo red absorbance; self-assembly started by dilution from urea into 25 mM NaH2PO4, 150 mM NaCl, pH 7.4, 40 µM ThT, 0.5 mM DTT, 37 °C, 2.5 µM (0.625–5 µM in the concentration series); Congo red on samples dialysed overnight at 0.3 mg/mL

| binding result [2] | Binder | binding result [1] | binding result [3] |
| --- | --- | --- | --- |
| binds | mCherry-RIPK1_(497–583) (domain or fragment, human, UniProt Q13546 497-583, looked up, also called RIPK1 RHIM construct; source: E. coli BL21(DE3), solubilised in 8 M urea, purified (Ni-NTA); not shown: mCherry, N-terminal, kept) MPSLHNIPVPETNYLGNTPTMPFSSLPPTDESIKYTIYNSTGIQIGAYNYMEIGGTSSSLLDSTNTNFKEEPAAKYQAIFDNTTSLT | binds | – |
| – | Ub-TRIF_(601–712) (domain or fragment, human, UniProt Q8IUC6 601-712, looked up, Kept as monomer in 8 M urea; assembly is started by removing the denaturant; also called wildtype TRIF RHIM; source: E. coli BL21(DE3), solubilised in 8 M urea, purified (Ni-NTA); not shown: ubiquitin, N-terminal, kept) APYGARMPFGGQVPLGAPPPFPTWPGCPQPPPLHAWQAGTPPPPSPQPAAFPQSLPFPQSPAFPTASPAPPQSPGLQPLIIHHAQMVQLGLNNHMWNQRGSQAPEDKTQEAE | – | binds |
| – | B1 | binds | – |
